{
  "source": "paper PMC9917595",
  "origin": "cited, not measured here",
  "target": "Endothelin-1 (Homo sapiens) (UniProt P05305)",
  "sequence (P05305 53-73)": "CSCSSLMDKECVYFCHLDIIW",
  "details": "cited from earlier work",
  "data": [
    {"substance": "Endothelin B receptor (from UniProt P24530)", "values": [
      {"measurement": "Kd", "value": 0.0286, "unit": "nM"}
    ]}
  ]
}
